The nature of the data set: yeast display, Sf9 membrane polyspecificity reagent, FACS + sequencing; frameworks hold sequencing errors. The procedure, abridged: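 Synthetic nanobody libraries on Saccharomyces cerevisiae BJ5465 were galactose-induced for 36–48 hours, stained 1 hour at 4 °C with 10% biotinylated, detergent-solubilized Sf9 membrane reagent and enriched on streptavidin microbeads. FACS then separated cells into low and high (top ~1%) gates by anti-HA (expression) and streptavidin (reagent binding) fluorescence. Genes were colony-PCR amplified, MiSeq 2 × 250 sequenced and CDR-length filtered. A clone's polyreactivity label is that of its gate of origin.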
For the sequence “QVQLVESGGGLVQAGGSLRLSCAASGFIFAYNAMGWYRQAPGKERELVAAISWSGGSTYYADSVKGRFTISRDNAKNTVYLQMNSLKPEDTAVYYCNAFSYYGARYDYWGLGTQVTVSS”, the “polyreactivity (PSR sort gate)” value is recorded as “high polyreactivity”. The entry for “QVQLVESGGGLVQAGGSLRLSCAASGFIFAYNAMGWYRQAPGKERELVAGISRRGGSTYYADSVKGRFTISRDNAKNTVYLQMNSLKPEDTAVYYCAADSFTYWSWLHGYWGQGTQVTVSS” is “high polyreactivity”.

Turning to “QVQLVESGGGLVQAGGSLRLSCAASGFIFAYNAMGWYRQAPGKERELVASIRTRAGSTYYADSVKGRFTISRDNAKNTDYLQMNSLKPADTAVYYSAARPFPRRYDYWGQGTQVTVSS”, the “polyreactivity (PSR sort gate)” value was “low polyreactivity”. Regarding “QVQLVESGGGLVQAGGSLRLSCAASGFIFAYYAMGWYRQAPGKERELVAAISQIGGRTYYADSVKGRFTISRDNAKNTVYLQMNSLKPEDTAVYYCAKAGAYKYGYWGQGTQVTVSS”, the “polyreactivity (PSR sort gate)” value is recorded as “high polyreactivity”.

Take “QVQLVESGGGLVQAGGSLRLSCAASGFIFAYYAMGWYRQAPGKERELVAAITWSGGITYYADSVKGRFTISRDNAKNTVYLQMNSLKPEDTAVYYCNRAWSSHRYYYWGQGTQVTVSS”: the “polyreactivity (PSR sort gate)” value was “high polyreactivity”. Consider “QVQLVESGGGLVQAGGSLRLSCAASGFIFDAYAMGWYRPAPGKEREFVAGISIGGRTNYADSVKGRFTISRDNAKNTVYLQMNSLKPEDSAVYYCAARNYRYYYGSYFRGPITNYEYWGQGTQVTVSS”, for which the “polyreactivity (PSR sort gate)” value is given as “low polyreactivity”. Then “QVQLVESGGGLVQAGGSLRLSCAASGFIFDDNAMGRYRQAPGKERELVAAITSGGGSTYYADSVKGRFTISRDNAKNTVYLQMNSLKPEDNAVYYCNAVPSQHVEFDYWGQGTQVTVSS”, with “low polyreactivity”.

Regarding “QVQLVESGGGLVQAGGSLRLSCAASGFIFDDNSMGWYRQAPGTEREFVAAISQGAGSTYYADSVKGRFTISRDTAKNTVNLQMNSLKPEDTAVYYCNNGRPKYWYGYKYDYWGHGTQVTVSS”, the “polyreactivity (PSR sort gate)” value was “low polyreactivity”. For “QVQLVESGGGLVQAGGSLRLSCAASGFIFDFYAMGWYRQAPGKERELVADITGGGSTYYADSVKGRFTISRDNAKNTVYLQMNSLKPEDTAVYYCAASYGVYWYSFWYHVAWYDYWGQGTQVTVSS”, the “polyreactivity (PSR sort gate)” value is reported as “low polyreactivity”.

In the case of “QVQLVESGGGLVQAGGSLRLSCAASGFIFDFYTMGWYRQATGKESELVAAITWSGDSTYYADSVKGRFTISRDNAKNTVYLQMNSLKPEDTAVYYCAADWWGVWYFDYDYWGQGTQVTVSS”, the “polyreactivity (PSR sort gate)” value is “low polyreactivity”.

Consider “QVQLVESGGGLVQAGGSLRLSCAASGFIFDGYAMGWYRQAPGKERELVAAIDSGGDRTYYADSVKGRFTISRDNAKYTVYLQMNSLKPEDTAVYYCAADSSDPTGYDYWGQGTQVTVSS”, for which the “polyreactivity (PSR sort gate)” value is recorded as “low polyreactivity”. For the sequence “QVQLVESGGGLVQAGGSLRLSCAASGFIFDHYAMGWYRQAPGKERELVAAISGSGGSTYYADSVKGRFPISRDNAKNTVYLQMNSLKPEDTAVYYCAARPGSKYAQRGYWGQGTHVTVSS”, the “polyreactivity (PSR sort gate)” value was “high polyreactivity”.

For the sequence “QVQLVESGGGLVQAGGSLRLSCAASGFIFDINAIGWYRQAPGKERELVAAISYSGGSTYYADSVKGRFTISRDNAKNTVYLQMNSLKPEDTAVYYCAADSGPDSDEGDYWGQGTQVTVSS”, the “polyreactivity (PSR sort gate)” value was “low polyreactivity”.

Take “QVQLVESGGGLVQAGGSLRLSCAASGFIFDIYAMGWYRQAPGKERELVASITWDDGSTYYADSVKGRFTISRDNAKNTVYLQMNRLKPVDTAVYYCAADFEAGGYSLDYWGQGTQVTVSS”: the “polyreactivity (PSR sort gate)” value is reported as “low polyreactivity”. The entry for “QVQLVESGGGLVQAGGSLRLSCAASGFIFDLYAMGWSRQAPGKERELVAAITYSGGSTYYADSVKGRFTISRDNAKNTVYLQMNSLKPEDTAVYYCAAYYGGRGYWGQGTQVTVSS” is “low polyreactivity”. “QVQLVESGGGLVQAGGSLRLSCAASGFIFDPYAMGWYRQAPGKERELVAAISDGGSTNYADSVKGRFTISRDNAKNTVYLQMNSLKPEDTAVYYCAVEYWYVWVTFDYWGQGTQVTVSS”: the “polyreactivity (PSR sort gate)” value is given as “low polyreactivity”. Turning to “QVQLVESGGGLVQAGGSLRLSCAASGFIFDQYAMGWYRQAPGKERELVATITSDGDTYYADSVKGRFTISRDNAKNTVYLHMISLKPEDSAVYYCAVEPGPYTTGYDYWGQGTQVTVSS”, the “polyreactivity (PSR sort gate)” value is recorded as “low polyreactivity”.

With “QVQLVESGGGLVQAGGSLRLSCAASGFIFDRNAMGWYRQAPGKERELVAAISKSGGSTYYADSVKGRFSISRDNAKNTVYLQMNSLKPEDTAVYYCAADRPTIRYNSWGQGTQVTVSS”, the “polyreactivity (PSR sort gate)” value is on record as “high polyreactivity”. Consider “QVQLVESGGGLVQAGGSLRLSCAASGFIFDRNTMGWYRQAPGKERELVAAISRSGGSTYYADSVKGRFTISRDNAKNTVYLLMNSLKPEDSAVYYCAALYYYRNRSYDYWGQGTQVTVSS”, for which the “polyreactivity (PSR sort gate)” value is on record as “high polyreactivity”. Turning to “QVQLVESGGGLVQAGGSLRLSCAASGFIFDTYVRGWYRQAPGKERELVAAISRTGGRTYYADSVKGRFTISRDNAKNTLYLQMNSLKPEDTAVYYCAARQSTQSGSYRRYNYWGQGTQVTVSS”, the “polyreactivity (PSR sort gate)” value was “high polyreactivity”. As for “QVQLVESGGGLVQAGGSLRLSCAASGFIFDVYAMGWYRQAPGKERELVAAITSGDGTNYADSVKGRFTISRDNAKNTVYLQMNSLKPEDTAVYYCAADDGVTYRGIIFSYWGQGTQVTVSS”, the “polyreactivity (PSR sort gate)” value is “low polyreactivity”.

For the sequence “QVQLVESGGGLVQAGGSLRLSCAASGFIFDWNTMGWYRQAPGKERELVAAITESSGSTYYADSVKGRFTISRDNAKNTVYLQMNSLKPEDTAVYDCAADFSYVYYLYDYWGQGTQVTVSS”, the “polyreactivity (PSR sort gate)” value was “low polyreactivity”.

Regarding “QVQLVESGGGLVQAGGSLRLSCAASGFIFDWNTMGWYRQAPGKERELVAAITESSGSTYYADSVKGRFTISRDNAKNTVYLQMNSLKPEDTAVYYCAADLDVYVSIGSRFHFDYWGQGTQVTVSS”, the “polyreactivity (PSR sort gate)” value is given as “low polyreactivity”. In the case of “QVQLVESGGGLVQAGGSLRLSCAASGFIFDWNTMGWYRQAPGQERELVAAITESSGSTYYADSVKGRFTISRDNAKNTVYLQMNSLKPEDTAVYYCAAESLISWRYDYWGQGTQVTVSS”, the “polyreactivity (PSR sort gate)” value was “low polyreactivity”. On to “QVQLVESGGGLVQAGGSLRLSCAASGFIFDWYTMGWYRQAPGKERELVAAITIGGSTDYADSVKGRFTISRDNAKNTVYLLMNSLKPEDTAVYYCNALWYLSGTWYDYWGQGTQVTVSS”, for which the “polyreactivity (PSR sort gate)” value was “low polyreactivity”. On to “QVQLVESGGGLVQAGGSLRLSCAASGFIFDYYAMGWYRQAPGKERELVAAITSRSGSTYYADSVKGRFTISRDNAKNTVYLQMNSLKPEDTAVYYCAAVYPDYSSARYDYWGQGTQVTVSS”, for which the “polyreactivity (PSR sort gate)” value is listed as “high polyreactivity”. Then “QVQLVESGGGLVQAGGSLRLSCAASGFIFEDYAMGWYTQATGKERELVAAITWRGGRTYYADSVKGRFTISRDNAKNTVYLQMNSLKPEDTAVYYCRPQVYSYASRYGYWGQGTQVTVLS”, with “low polyreactivity”; and “QVQLVESGGGLVQAGGSLRLSCAASGFIFEGYAMGWYRQAPGKERELVAAISRGGGSTYYADSVKGRFTISRDNAKNTVYLQMNSLKPEDTAVYSCATGGYYHYTGVKMYYWGQGTQVTVSS”, with “high polyreactivity”. In the case of “QVQLVESGGGLVQAGGSLRLSCAASGFIFEKYTMGWYRQAPGKERELVAAITWNGGSTYYADSVKGRFTISRDNAKNTVYLQMNSLKPEDTAVYYCAARVGWNKRRYDYWGQGTQVNVSS”, the “polyreactivity (PSR sort gate)” value was “low polyreactivity”. For “QVQLVESGGGLVQAGGSLRLSCAASGFIFETYVMGWYRQAPGKVRALVAAISGGGSTYYADSVKGRFTMSRDNAKNTVYLQMNSLKPEDTAVYYCAAGSWRARSYYHYYYWGQGTQVTVSS”, the “polyreactivity (PSR sort gate)” value was “high polyreactivity”.

(Values after the nanobody polyreactivity screen of Harvey et al. (2022).)
